The record followed here is publication PMC5104429 (2016).

Sequences and labels used below:
B1: Flag-tagged wild type LRRK2 (leucine-rich repeat kinase 2) [human] / Full length V5-tagged FADD [not stated] (parent complex)
chain 1: MASGSCQGCEEDEETLKKLIVRLNNVQEGKQIETLVQILEDLLVFTYSERASKLFQGKNIHVPLLIVLDSYMRVASVQQVGWSLLCKLIEVCPGTMQSLMGPQDVGNDWEVLGVHQLILKMLTVHNASVNLSVIGLKTLDLLLTSGKITLLILDEESDIFMLIFDAMHSFPANDEVQKLGCKALHVLFERVSEEQLTEFVENKDYMILLSALTNFKDEEEIVLHVLHCLHSLAIPCNNVEVLMSGNVRCYNIVVEAMKAFPMSERIQEVSCCLLHRLTLGNFFNILVLNEVHEFVVKAVQQYPENAALQISALSCLALLTETIFLNQDLEEKNENQENDDEGEEDKLFWLEACYKALTWHRKNKHVQEAACWALNNLLMYQNSLHEKIGDEDGHFPAHREVMLSMLMHSSSKEVFQASANALSTLLEQNVNFRKILLSKGIHLNVLELMQKHIHSPEVAESGCKMLNHLFEGSNTSLDIMAAVVPKILTVMKRHETSLPVQLEALRAILHFIVPGMPEESREDTEFHHKLNMVKKQCFKNDIHKLVLAALNRFIGNPGIQKCGLKVISSIVHFPDALEMLSLEGAMDSVLHTLQMYPDDQEIQCLGLSLIGYLITKKNVFIGTGHLLAKILVSSLYRFKDVAEIQTKGFQTILAILKLSASFSKLLVHHSFDLVIFHQMSSNIMEQKDQQFLNLCCKCFAKVAMDDYLKNVMLERACDQNNSIMVECLLLLGADANQAKEGSSLICQVCEKESSPKLVELLLNSGSREQDVRKALTISIGKGDSQIISLLLRRLALDVANNSICLGGFCIGKVEPSWLGPLFPDKTSNLRKQTNIASTLARMVIRYQMKSAVEEGTASGSDGNFSEDVLSKFDEWTFIPDSSMDSVFAQSDDLDSEGSEGSFLVKKKSNSISVGEFYRDAVLQRCSPNLQRHSNSLGPIFDHEDLLKRKRKILSSDDSLRSSKLQSHMRHSDSISSLASEREYITSLDLSANELRDIDALSQKCCISVHLEHLEKLELHQNALTSFPQQLCETLKSLTHLDLHSNKFTSFPSYLLKMSCIANLDVSRNDIGPSVVLDPTVKCPTLKQFNLSYNQLSFVPENLTDVVEKLEQLILEGNKISGICSPLRLKELKILNLSKNHISSLSENFLEACPKVESFSARMNFLAAMPFLPPSMTILKLSQNKFSCIPEAILNLPHLRSLDMSSNDIQYLPGPAHWKSLNLRELLFSHNQISILDLSEKAYLWSRVEKLHLSHNKLKEIPPEIGCLENLTSLDVSYNLELRSFPNEMGKLSKIWDLPLDELHLNFDFKHIGCKAKDIIRFLQQRLKKAVPYNRMKLMIVGNTGSGKTTLLQQLMKTKKSDLGMQSATVGIDVKDWPIQIRDKRKRDLVLNVWDFAGREEFYSTHPHFMTQRALYLAVYDLSKGQAEVDAMKPWLFNIKARASSSPVILVGTHLDVSDEKQRKACMSKITKELLNKRGFPAIRDYHFVNATEESDALAKLRKTIINESLNFKIRDQLVVGQLIPDCYVELEKIILSERKNVPIEFPVIDRKRLLQLVRENQLQLDENELPHAVHFLNESGVLLHFQDPALQLSDLYFVEPKWLCKIMAQILTVKVEGCPKHPKGIISRRDVEKFLSKKRKFPKNYMSQYFKLLEKFQIALPIGEEYLLVPSSLSDHRPVIELPHCENSEIIIRLYEMPYFPMGFWSRLINRLLEISPYMLSGRERALRPNRMYWRQGIYLNWSPEAYCLVGSEVLDNHPESFLKITVPSCRKGCILLGQVVDHIDSLMEEWFPGLLEIDICGEGETLLKKWALYSFNDGEEHQKILLDDLMKKAEEGDLLVNPDQPRLTIPISQIAPDLILADLPRNIMLNNDELEFEQAPEFLLGDGSFGSVYRAAYEGEEVAVKIFNKHTSLRLLRQELVVLCHLHHPSLISLLAAGIRPRMLVMELASKGSLDRLLQQDKASLTRTLQHRIALHVADGLRYLHSAMIIYRDLKPHNVLLFTLYPNAAIIAKIADYGIAQYCCRMGIKTSEGTPGFRAPEVARGNVIYNQQADVYSFGLLLYDILTTGGRIVEGLKFPNEFDELEIQGKLPDPVKEYGCAPWPMVEKLIKQCLKENPQERPTSAQVFDILNSAELVCLTRRILLPKNVIVECMVATHHNSRNASIWLGCGHTDRGQLSFLDLNTEGYTSEEVADSRILCLALVHLPVEKESWIVSGTQSGTLLVINTEDGKKRHTLEKMTDSVTCLYCNSFSKQSKQKNFLLVGTADGKLAIFEDKTVKLKGAAPLKILNIGNVSTPLMCLSESTNSTERNVMWGGCGTKIFSFSNDFTIQKLIETRTSQLFSYAAFSDSNIITVVVDTALYIAKQNSPVVEVWDKKTEKLCGLIDCVHFLREVMVKENKESKHKMSYSGRVKTLCLQKNTALWIGTGGGHILLLDLSTRRLIRVIYNFCNSVRVMMTAQLGSLKNVMLVLGYNRKNTEGTQKQKEIQSCLTVWDINLPHEVQNLEKHIEVRKELAEKMRRTSVE
chain 2: MDPFLVLLHSVSSSLSSSELTELKFLCLGRVGKRKLERVQSGLDLFSMLLEQNDLEPGHTELLRELLASLRRHDLLRRVDDFEAGAAAGAAPGEEDLCAAFNVICDNVGKDWRRLARQLKVSDTKIDSIEDRYPRNLTERVRESLRIWKNTEKENATVAHLVGALRSCQMNLVADLVQEVQQARDLQNRSGAMSPMSWNSDASTSEAS

The first assay covers variants of B1. Nature of the assay: ELISA (anti-Flag capture, anti-V5 detection); 15 μg of cell extract loaded in each well; parent: 0.61; read off a plot. For orientation: An ELISA detects its analyte on a solid surface through an enzyme-linked reagent.
For chain 1 I2020T, the response was ~0.77 anti-V5/Total LRRK2.

Take chain 1 T1410M: the response is ~1.7 anti-V5/Total LRRK2.

On to chain 1 R1441C, for which the response is ~0.75 anti-V5/Total LRRK2.

Take chain 1 A211V: the response is ~0.91 anti-V5/Total LRRK2.

As for chain 1 K544E, the response is ~1.2 anti-V5/Total LRRK2.

For the variant chain 1 G2019S, the response was ~1.2 anti-V5/Total LRRK2.

Variants of B1 are the subject of a further assay. Nature of the assay: co-immunoprecipitation (M2-Flag resin), quantified Western blot band intensity; HEK293T cells; Flag-LRRK2 and V5-FADD at a ratio of 4:1; three independent experiments; parent: 1; read off a plot. A general note: A western blot detects proteins with antibodies after separation by electrophoresis.
For the variant chain 1 I2020T, the response was ~1.6 norm. to Flag IP.

For chain 1 T1410M, the response was ~2 norm. to Flag IP.

As to chain 1 R1441C, the response is ~1.1 norm. to Flag IP.

Consider chain 1 A211V, for which the response is ~1.7 norm. to Flag IP.

Turning to chain 1 K544E, the response was ~1 norm. to Flag IP.

For chain 1 G2019S, the response is ~1.3 norm. to Flag IP.
